Measured values as given in PMC10250219.
Where two headings read alike, the source gives them in different places.

Key:
Assay in all cases: EMSA
[1] = biological target: OGG1-Y203A (untagged) (human, UniProt O15527 1-345, Y203A)
[2] = biological target: T1, OGG1 WT (untagged) (human, UniProt O15527 1-345)
[3] = biological target: T2, OGG1-2NA (untagged) (human, UniProt O15527 1-345, N149A;N150A)
[4] = biological target: T1, OGG1 WT (untagged); remark: listed apart in the source
[5] = biological target: T2, OGG1-2NA (untagged); remark: listed apart in the source
[6] = biological target: GST-OGG1-G245A (human, UniProt O15527 1-345, G245A)
GST-OGG1-G245A, sequence (O15527 whole entry G245A): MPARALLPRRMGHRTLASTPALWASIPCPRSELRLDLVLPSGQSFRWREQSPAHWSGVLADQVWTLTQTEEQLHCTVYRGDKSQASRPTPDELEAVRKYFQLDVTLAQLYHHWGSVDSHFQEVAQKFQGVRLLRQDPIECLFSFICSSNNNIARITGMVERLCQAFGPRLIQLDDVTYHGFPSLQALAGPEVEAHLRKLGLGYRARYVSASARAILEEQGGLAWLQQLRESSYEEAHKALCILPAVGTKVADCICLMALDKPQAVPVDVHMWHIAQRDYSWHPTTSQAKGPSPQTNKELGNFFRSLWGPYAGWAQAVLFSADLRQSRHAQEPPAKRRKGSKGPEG

T1 sequence (O15527 whole entry): as the sequence (O15527 whole entry G245A) above, with A245G counted along it
T2 sequence (O15527 whole entry N149A/N150A): as the sequence (O15527 whole entry G245A) above, with N149A, N150A, A245G counted along it
OGG1-Y203A (untagged), sequence (O15527 whole entry Y203A): as the sequence (O15527 whole entry G245A) above, with Y203A, A245G counted along it

B1: 24-mer G:C duplex (dsDNA)
DNA 1: CTGATCGATGACGCCTGACATGAT
DNA 2: ATCATGTCAGGCGTCATCGATCAG
Kd [1]: 1970 ± 270 nM | Kd [2]: 2220 ± 220 nM | Kd [3]: 602 ± 42 nM

B2: 24-mer 8-oxoG:C duplex (dsDNA)
DNA 1: CTGATCGATGACGCCTGACATGAT
DNA 2: ATCATGTCAGGCGTCATCGATCAG
modifications: 8-oxoG at position 13 of strand 1 (opposite C)
Kd [4]: 0.42 ± 0.03 nM | Kd [5]: 6.37 ± 0.58 nM

B3: Cy5 34-mer 8-oxoG:C duplex (dsDNA)
DNA 1: GGCTTCATCGTTGTCGCAGACCTGGTGGATACCG
DNA 2: CGGTATCCACCAGGTCTGCGACAACGATGAAGCC
modifications: 8-oxoG at position 16 of strand 1 (opposite C)
binding result [6]: no binding

B4: Cy5 34-mer G:C duplex (dsDNA)
DNA 1: GGCTTCATCGTTGTCGCAGACCTGGTGGATACCG
DNA 2: CGGTATCCACCAGGTCTGCGACAACGATGAAGCC
binding result [6]: no binding
